Target: FuBc protein (recombinant protein of the fusion loop and Bc loop of domain II of dengue envelope protein with their neighbouring residues) (DENV-2 (of the template structure PDB 1OAN))
Experiment: SPR; Biacore T200; FuBc immobilised by amine coupling; scFv injected at 10 uM down to 50 nM, 20 ul/min over 2 min; regeneration with 2 M NaCl; control flow cell subtracted; KD as kd/ka

Sequence of 3IXY scFv antibody (VH and VL of the anti-fusion loop dengue E53 Fab, PDB 3IXY, joined by a (G4S)3 linker) (VH): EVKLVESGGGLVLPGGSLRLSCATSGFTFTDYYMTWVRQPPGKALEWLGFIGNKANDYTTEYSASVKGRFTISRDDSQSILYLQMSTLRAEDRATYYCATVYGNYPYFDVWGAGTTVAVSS
Sequence of 3IXY scFv antibody (VH and VL of the anti-fusion loop dengue E53 Fab, PDB 3IXY, joined by a (G4S)3 linker) (VL): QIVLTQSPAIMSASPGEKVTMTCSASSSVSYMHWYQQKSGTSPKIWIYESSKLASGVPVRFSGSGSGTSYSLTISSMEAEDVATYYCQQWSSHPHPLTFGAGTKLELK

Work on “3IXY scFv antibody (VH and VL of the anti-fusion loop dengue E53 Fab, PDB 3IXY, joined by a (G4S)3 linker)” yielded a Kd of 2.3 µM.

Source: publication PMC6328183
